We go through 2 molecules from PMC9001700 (Communications Biology, 2022).

This experiment concerns the target SARS-CoV-2 S6P (SARS-CoV-2, Wuhan-Hu-1 (assumed), UniProt P0DTC2, stabilised, biotinylated (site not stated)). Description: BLI. The following applies: both partners purified.

B1: CV3-25 Fab (Fab, V domains shown)
VH: QVQLVESGAEVKKPGESLKISCKGSGYTFTRYWIGWVRQMPGKGLEWMGIIYPGDSDTRYSPSFQGHVTISADKSISTAYLQWNSLKASDTAMYYCARLPQYCSNGVCQRWFDPWGQGTLVTVSS
VL: EIVLTQSPSSVSASVGDRVTITCRASQGISSWLAWYQQKPGKAPKLLIYAASSLQSGVPSRFSGSGSGTDFTLTISSLQPEDFATYYCQQGNSFPYTFGQGTNLEIK
notes: also called monovalent Fab
As usually defined, the Kd is the free concentration of one partner at which half of the binding sites on the other are occupied at equilibrium, for simple one-to-one binding. Higher therefore signals a looser complex. Take B1: the Kd is ~0.6 nM.

B2: B6 mAb (antibody, V domains shown)
VH: EVQLQQSGPVLVKPGASVRMSCKASGYTITDYYLNWVKQSHGKSLEWLGVLNPYSGGSLYSQTFKGKATLTVDRSSSTAYLELNSLTSEDSAVYYCARQLGRGNGLDYWGQGTSVTVSS
VL: NIMMTQSPSSLAVSAGEKVTMSCKSSQSVLHSSDQKNYLAWYQQKPGQSPKLLIYWASTRESGVPDRFTGSGSGTDFTLTISSVQAEDLAVYFCHQYLSSYTFGGGTKLEIK
notes: source: 293 cells, purified using protein A resin
B2: the binding result is “binds”.
